The record followed here is patent US20250270343A1 (Alector, published 2025).

What is called Kd is the constant that tells how readily two partners part at equilibrium. One may read the koff as a measure of how fast the partners let go of each other. As usually defined, the kon is the rate constant with which the complex forms.

Assay [1] deals with T1, full-length untagged human GPNMB expressed on cells (human, UniProt Q14956 23-572).
T1 sequence: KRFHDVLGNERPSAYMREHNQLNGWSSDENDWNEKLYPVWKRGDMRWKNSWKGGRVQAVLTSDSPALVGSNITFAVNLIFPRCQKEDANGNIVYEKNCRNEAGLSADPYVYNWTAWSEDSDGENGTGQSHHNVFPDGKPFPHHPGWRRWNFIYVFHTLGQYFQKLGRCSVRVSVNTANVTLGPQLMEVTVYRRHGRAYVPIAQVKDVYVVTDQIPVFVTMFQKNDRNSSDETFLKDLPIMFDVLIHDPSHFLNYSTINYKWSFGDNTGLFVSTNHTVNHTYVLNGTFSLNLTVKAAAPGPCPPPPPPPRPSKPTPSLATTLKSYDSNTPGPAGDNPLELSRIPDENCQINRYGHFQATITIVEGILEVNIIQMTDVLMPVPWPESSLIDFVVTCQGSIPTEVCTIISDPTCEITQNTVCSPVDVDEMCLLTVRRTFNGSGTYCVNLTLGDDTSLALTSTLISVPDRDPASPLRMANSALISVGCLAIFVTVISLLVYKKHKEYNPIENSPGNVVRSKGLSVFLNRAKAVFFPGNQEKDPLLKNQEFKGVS
The assay can be described thus: cell-based or functional assay.

Assay [2] concerns the target T1, full-length untagged human GPNMB …. The assay can be described thus: cell-based or functional assay. The source holds these as a separate data set.
For assay [3] the target is unchanged. Put plainly: cell-based or functional assay. The source holds these as a separate data set.
The target is the same in assay [4]. Put plainly: cell-based or functional assay. This is another data set of the same source.
For assay [5], the target named is T2, soluble cynomolgus GPNMB (recombinant extracellular domain) (cynomolgus, UniProt Q14956 23-499 (human entry), limits assumed).
T2 chain: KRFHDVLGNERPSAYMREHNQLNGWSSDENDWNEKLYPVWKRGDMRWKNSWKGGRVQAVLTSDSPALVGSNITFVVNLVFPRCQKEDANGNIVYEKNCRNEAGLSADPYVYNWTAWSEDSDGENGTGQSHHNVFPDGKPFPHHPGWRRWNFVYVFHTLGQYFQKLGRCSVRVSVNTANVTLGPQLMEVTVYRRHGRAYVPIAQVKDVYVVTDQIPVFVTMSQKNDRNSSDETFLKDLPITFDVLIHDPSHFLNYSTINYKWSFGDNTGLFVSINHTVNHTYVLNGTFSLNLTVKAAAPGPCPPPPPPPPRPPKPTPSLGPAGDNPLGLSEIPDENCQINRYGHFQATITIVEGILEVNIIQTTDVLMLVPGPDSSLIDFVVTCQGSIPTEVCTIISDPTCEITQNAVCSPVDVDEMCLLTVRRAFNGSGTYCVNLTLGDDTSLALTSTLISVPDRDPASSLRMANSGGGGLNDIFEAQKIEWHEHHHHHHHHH
The assay can be described thus: SPR Carterra, Ab immobilized. The essentials: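 Antibodies amine-coupled on HC200M chip in a 96-spot array; recombinant GPNMB ECD analytes injected at 2.5–600 nM, lowest to highest, without regeneration. Running buffer HBS-EP+ with 0.5 mg/ml BSA; two buffer blanks between species series. Kinetics fitted to yield affinity estimates.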

B1: anti-GPNMB antibody GPN-83 (antibody, V domains shown)
VH: QVQLQESGPGLVKPSETLSLTCTVSGISITTGNYRWSWIRQPPGKGLEWIGYIDYSGTITYNPSLKSRVTITRDTSKNQFSLELSSVTAADTAVYYCARDLTHWYFDVWGQGTLVTVSS
VL: DIVMTQSPDSLAVSLGERATINCKSSRSVDYYGIGFVNWYQQKPGQPPKLLIYATSIQGSGVPDRFSGSGSGTDFTLTISSLQAEDVAVYYCQQQKEVPPTFGGGTKVEIK
In the case of B1, in assay [1], the “Inflammasome: Fold Decrease IL-1β (max response at 0.3 µg/ml)” value (from here on “Inflammasome: Fold Decrease IL-1β”) was found to be 0.472 fold. Also, in assay [2], the “EC50 GCase” value is 0.834 nM, the “EC50 Lyso Tracker” value was 1.17 nM, the “Fold Decrease Lyso Tracker (max response at 1 µg/ml)” value (“Fold Decrease Lyso Tracker” below) amounted to 0.755 fold and the “Fold Increase GCase (max response at 1 µg/ml)” value (“Fold Increase GCase” below) stood at 1.32 fold. In assay [3], the “EC50 PDL1” value worked out at 0.91 nM, the “Fold Increase CD40 (max response at 1 µg/ml)” value (“Fold Increase CD40” for short) stood at 2.1 fold and the “Fold Increase PDL1 (max response at 1 µg/ml)” value (“Fold Increase PDL1” for short) is 4.31 fold.

B2: anti-GPNMB antibody GPN-85 (antibody, V domains shown)
VH: QVQLQESGPGLVKPSETLSLTCTVSGISITTGNYRWSWIRQPPGKGLEWIGYIDYSGTITYNPSLKQRVTITRDTSKNQFSLELSSVTAADTAVYYCARDLTHWYFDVWGQGTLVTVSS
VL: DIVMTQSPDSLAVSLGERATINCKSSRSVDYFGIGFLNWYQQKPGQPPKLLIYATSHQGSGVPDRFSGSGSGTDFTLTISSLQAEDVAVYYCQQQKEVPPTFGGGTKVEIK
Regarding B2, in assay [1], the “Inflammasome: Fold Decrease IL-1β” value was 0.601 fold. In assay [2], the “EC50 GCase” value amounted to 2.2 nM, the “EC50 Lyso Tracker” value was found to be 1.39 nM, the “Fold Decrease Lyso Tracker” value came to 0.755 fold and the “Fold Increase GCase” value was 1.31 fold. Besides, in assay [3], the “EC50 PDL1” value stood at 0.97 nM, the “Fold Increase CD40” value was found to be 2.1 fold and the “Fold Increase PDL1” value is 4.22 fold.

B3: anti-GPNMB antibody GPN-89 (antibody, V domains shown)
VH: QVQLQESGPGLVKPSETLSLTCTVSGISITTGNYRWSWIRQPPGKGLEWIGYIDYSGTITYNPSLKSRVTITRDTSKNQFSLELSSVTAADTAVYYCARDLTHWYYDVWGQGTLVTVSS
VL: DIVMTQSPDSLAVSLGERATINCKSSRSVDYYGIGFLNWYQQKPGQPPKLLIYATSHQGSGVPDRFSGSGSGTDFTLTISSLQAEDVAVYYCQQQKEVPPTFGGGTKVEIK
With B3, the “Inflammasome: Fold Decrease IL-1β” value in assay [1] worked out at 0.501 fold. Besides, in assay [2], the “EC50 GCase” value was 0.898 nM, the “EC50 Lyso Tracker” value worked out at 1.18 nM, the “Fold Decrease Lyso Tracker” value is 0.757 fold and the “Fold Increase GCase” value worked out at 1.35 fold. Further, in assay [3], the “EC50 PDL1” value is 1 nM, the “Fold Increase CD40” value came to 2.12 fold and the “Fold Increase PDL1” value came out at 4.22 fold.

B4: anti-GPNMB antibody GPN-90 (antibody, V domains shown)
VH: QVQLQESGPGLVKPSETLSLTCTVSGISITTGNYRWSWIRQPPGKGLEWIGYIDYSGTITYNPSLKQRVTITRDTSKNQFSLELSSVTAADTAVYYCARDLTHWYFDVWGQGTLVTVSS
VL: DIVMTQSPDSLAVSLGERATINCKSSRSVDYYGIGFLNWYQQKPGQPPKLLIYATSHQGSGVPDRFSGSGSGTDFTLTISSLQAEDVAVYYCQQQKEVPPTFGGGTKVEIK
As to B4, the “Inflammasome: Fold Decrease IL-1β” value in assay [1] amounted to 0.564 fold. For the same molecule, in assay [2], the “EC50 GCase” value is 0.685 nM, the “EC50 Lyso Tracker” value turned out to be 1.58 nM, the “Fold Decrease Lyso Tracker” value stood at 0.761 fold and the “Fold Increase GCase” value was determined as 1.37 fold. In assay [3], the “EC50 PDL1” value was found to be 0.68 nM, the “Fold Increase CD40” value turned out to be 2.12 fold and the “Fold Increase PDL1” value turned out to be 4.28 fold.

B5: anti-GPNMB antibody GPN-87 (antibody, V domains shown)
VH: QVQLQESGPGLVKPSETLSLTCTVSGISITTGNYRWSWIRQPPGKGLEWIGYIDYSGTITYNPSLKSRVTITRDTSKNQFSLELSSVTAADTAVYYCARDLTHWYYDVWGQGTLVTVSS
VL: DIVMTQSPDSLAVSLGERATINCKSSRSVDYYGIGFLNWYQQKPGQPPKLLIYATSKQGSGVPDRFSGSGSGTDFTLTISSLQAEDVAVYYCQQQKEVPPTFGGGTKVEIK
Regarding B5, the “Inflammasome: Fold Decrease IL-1β” value in assay [1] is 0.428 fold. In assay [2], the “EC50 GCase” value was 0.767 nM, the “EC50 Lyso Tracker” value was found to be 1.06 nM, the “Fold Decrease Lyso Tracker” value is 0.716 fold and the “Fold Increase GCase” value was found to be 1.36 fold. For the same molecule, in assay [3], the “EC50 PDL1” value was determined as 1.36 nM, the “Fold Increase CD40” value stood at 2.15 fold and the “Fold Increase PDL1” value came out at 4.4 fold.

B6: anti-GPNMB antibody GPN-03 (antibody, human IgG1, V domains shown)
VH: QVQLQQSGPELVKPGASVKLSCKASGYTFTNYYMYWVKQRPGQGLEWIGEINPRNGGTNFNEKFKSKATLTVDKSSSTAYMQLSSLTFEDSAVYYCTTGLAYWGQGTLVTVSA
VL: DVVMTQTPLSLPVSLGDQASISCRSSQSLVHSDGNTYLHWYLQKPGQSPKLLIYKVSTRFSGVPDRFSGSGSGTDFTLKISRVEAEDLGVYFCSQSTHVPWTFGGGTKLEIK
notes: chimeric
In the case of B6, in assay [4], the “CD40 (FoB)” value was determined as 1.45 FoB, the “CD80 (FoB)” value came to 1.4 FoB, the “GCase (FoB)” value came to 1.47 FoB and the “PDL1 (FoB)” value worked out at 1.32 FoB. Besides, in assay [5], the Kd amounted to 38.7 nM, the dissociation rate constant (koff) was 0.0021 s⁻¹ and the kon was 54000 M⁻¹ s⁻¹.

B7: anti-GPNMB antibody GPN-06 (antibody, human IgG1, V domains shown)
VH: QVQLQQSGAELVKPGASVKLSCKASGYTFTNYYMYWVKQRPGQGLEWIGEINTRNGGTNFNEKFKSKATLTVDKSSSTAYMQLSSLTSEDSAVYYCTTGFAYWGQGTLVTVSA
VL: DIQMTQSPASLSASVGETVTITCRASENIYSYLVWYQQNQGKSPQLLVYNAKTLAEGVPSRFSGSGSGTQFSLKINSLQPEDFGTYYCQHHYGTPFTFGSGTKLEIK
notes: chimeric
For B7, in assay [4], the “CD40 (FoB)” value came out at 1.44 FoB, the “CD80 (FoB)” value was determined as 1.38 FoB, the “GCase (FoB)” value turned out to be 1.58 FoB and the “PDL1 (FoB)” value came out at 1.61 FoB. For the same molecule, in assay [5], the dissociation constant (Kd) amounted to 97.9 nM, the off-rate constant (koff) worked out at 0.0021 s⁻¹ and the kon came to 21000 M⁻¹ s⁻¹.

B8: anti-GPNMB antibody GPN-34 (antibody, human IgG1, V domains shown)
VH: EVKLVESGGGLVQPGRSLKLSCAASGFNFYDYWMGWVRQAPGKGLEWIGEINKDSRTINYTPFLKDRFTISRDNAQNTLYLQMSKLGSEDTAIYYCAREGRVPFDYWGQGVMVTVSS
VL: DIQMTQSPSSMSVSLGDTVTIPCRASQDVGSYVNWFQQKPGKSPRHMIYRATNLADGVPSRFSGSRSGADYSLTISSLESEDVADYHCQQYAEYPLTFGSGTKLEIK
notes: chimeric
For B8, in assay [4], the “CD40 (FoB)” value worked out at 1.52 FoB, the “CD80 (FoB)” value worked out at 1.36 FoB, the “GCase (FoB)” value is 1.76 FoB and the “PDL1 (FoB)” value came to 1.56 FoB. In assay [5], the Kd is 0.4 nM, the koff was 0.00011 s⁻¹ and the on-rate (kon) is 250000 M⁻¹ s⁻¹.

B9: anti-GPNMB antibody GPN-61 (antibody, human IgG1, V domains shown)
VH: DVQLQESGPGLVKPSQTVFLTCTVTGISITTGNYRWSWIRQFPGNKLEWIGYIYYSGTITYNPSLTSRTTITRDTPKNQFFLEMSSLTAEDTATYFCARDLRHWYFDVWGTGTTVTVSS
VL: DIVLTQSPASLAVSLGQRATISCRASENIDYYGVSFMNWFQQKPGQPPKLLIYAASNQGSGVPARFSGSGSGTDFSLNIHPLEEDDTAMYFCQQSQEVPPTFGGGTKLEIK
notes: chimeric
As for B9, in assay [4], the “CD40 (FoB)” value is 1.61 FoB, the “CD80 (FoB)” value was 1.5 FoB, the “GCase (FoB)” value came out at 1.46 FoB and the “PDL1 (FoB)” value came to 1.52 FoB. In addition, in assay [5], the Kd stood at 47.9 nM, the off-rate (koff) stood at 0.0041 s⁻¹ and the kon came out at 86000 M⁻¹ s⁻¹.

B10: anti-GPNMB antibody GPN-08 (antibody, human IgG1, V domains shown)
VH: QVQLQQPGAELVKPGASVKLSCRASGYTFTSYWLHWVKQRPGQGLEWIGEINPSDGRTNYIEKVKTKATLTVDKSSSTAYMQLSSLTSEDSAVYYCARSGGNYAWFAYWGQGTLVTVSA
VL: DIVMTQSHKFMSTSVGDRVSITCKASQDVSPSVAWYQQRPGQSPKLLIYSASYRYTGVPDRFTGSGSGTDFTFTISSVQAEDLAVYYCQQHYSIPLTFGAGTKLELK
notes: chimeric
Turning to B10, in assay [4], the “CD40 (FoB)” value came out at 1.35 FoB, the “CD80 (FoB)” value is 1.29 FoB, the “GCase (FoB)” value amounted to 1.18 FoB and the “PDL1 (FoB)” value turned out to be 1.59 FoB. In assay [5], the Kd was determined as 32.8 nM, the off-rate constant (koff) was found to be 0.0015 s⁻¹ and the kon is 48000 M⁻¹ s⁻¹.
